Our source for the Km values is patent publication US5238825A, “Preparation and use of a cyclodextrinase for preparing maltooligosaccharides” (Kikkoman Corporation, priority 1989, dated 1993).

Common to all, as to settings: other: substrate of Bacillus sphaericus cyclodextrinase; pH 7.5; 40.0 °C
Substrate in data set [1]: OC[C@H]1O[C@H](O[C@H]2[C@H](O)[C@@H](O)[C@@H](O[C@H]3[C@H](O)[C@@H](O)[C@@H](O[C@H]4[C@H](O)[C@@H](O)[C@@H](O[C@H]5[C@H](O)[C@@H](O)[C@@H](O[C@H]6[C@H](O)[C@@H](O)[C@@H](O[C@H]7[C@H](O)[C@@H](O)C(O)O[C@@H]7CO)O[C@@H]6CO)O[C@@H]5CO)O[C@@H]4CO)O[C@@H]3CO)O[C@@H]2CO)[C@H](O)[C@@H](O)[C@@H]1O
In words: Reaction rate parameters of the present enzyme for cyclodextrins and maltooligosaccharides. It is filed as biochemical.

Substrate in data set [2]: OC[C@H]1O[C@H](O[C@H]2[C@H](O)[C@@H](O)[C@@H](O[C@H]3[C@H](O)[C@@H](O)[C@@H](O[C@H]4[C@H](O)[C@@H](O)[C@@H](O[C@H]5[C@H](O)[C@@H](O)C(O)O[C@@H]5CO)O[C@@H]4CO)O[C@@H]3CO)O[C@@H]2CO)[C@H](O)[C@@H](O)[C@@H]1O
The data set is described as above. It is filed as biochemical.

Substrate in data set [3]: OC[C@H]1O[C@@H]2O[C@H]3[C@H](O)[C@@H](O)[C@@H](O[C@H]4[C@H](O)[C@@H](O)[C@@H](O[C@H]5[C@H](O)[C@@H](O)[C@@H](O[C@H]6[C@H](O)[C@@H](O)[C@@H](O[C@H]7[C@H](O)[C@@H](O)[C@@H](O[C@H]1[C@H](O)[C@H]2O)O[C@@H]7CO)O[C@@H]6CO)O[C@@H]5CO)O[C@@H]4CO)O[C@@H]3CO
The data set is described as above. It is filed as biochemical.

Substrate in data set [4]: OC[C@H]1O[C@@H]2O[C@H]3[C@H](O)[C@@H](O)[C@@H](O[C@H]4[C@H](O)[C@@H](O)[C@@H](O[C@H]5[C@H](O)[C@@H](O)[C@@H](O[C@H]6[C@H](O)[C@@H](O)[C@@H](O[C@H]7[C@H](O)[C@@H](O)[C@@H](O[C@H]8[C@H](O)[C@@H](O)[C@@H](O[C@H]9[C@H](O)[C@@H](O)[C@@H](O[C@H]1[C@H](O)[C@H]2O)O[C@@H]9CO)O[C@@H]8CO)O[C@@H]7CO)O[C@@H]6CO)O[C@@H]5CO)O[C@@H]4CO)O[C@@H]3CO
In words: purified protein, by the assay type.

Substrate in data set [5]: OC[C@H]1O[C@H](O[C@H]2[C@H](O)[C@@H](O)[C@@H](O[C@H]3[C@H](O)[C@@H](O)[C@@H](O[C@H]4[C@H](O)[C@@H](O)C(O)O[C@@H]4CO)O[C@@H]3CO)O[C@@H]2CO)[C@H](O)[C@@H](O)[C@@H]1O
Briefly: purified protein, by the assay type.

Substrate in data set [6]: OC[C@H]1O[C@@H]2O[C@H]3[C@H](O)[C@@H](O)[C@@H](O[C@H]4[C@H](O)[C@@H](O)[C@@H](O[C@H]5[C@H](O)[C@@H](O)[C@@H](O[C@H]6[C@H](O)[C@@H](O)[C@@H](O[C@H]7[C@H](O)[C@@H](O)[C@@H](O[C@H]8[C@H](O)[C@@H](O)[C@@H](O[C@H]1[C@H](O)[C@H]2O)O[C@@H]8CO)O[C@@H]7CO)O[C@@H]6CO)O[C@@H]5CO)O[C@@H]4CO)O[C@@H]3CO
In words: purified protein, by the assay type.

Substrate in data set [7]: OC[C@H]1O[C@H](O[C@H]2[C@H](O)[C@@H](O)[C@@H](O[C@H]3[C@H](O)[C@@H](O)[C@@H](O[C@H]4[C@H](O)[C@@H](O)[C@@H](O[C@H]5[C@H](O)[C@@H](O)[C@@H](O[C@H]6[C@H](O)[C@@H](O)C(O)O[C@@H]6CO)O[C@@H]5CO)O[C@@H]4CO)O[C@@H]3CO)O[C@@H]2CO)[C@H](O)[C@@H](O)[C@@H]1O
In words: purified protein, by the assay type.

B1: cyclodextrinase (Lysinibacillus sphaericus) (protein)
chain: MIMLEAVYHRMGQNWSYAYNDSTLHIRIRTKRDNVPRIDLHCGEKYDPEKYKETIPMERMASDGLFDYWQAAVQPRYRRLVYYFALHSDNGDAVYFMEKGFFDQPPKVMYEGLFDFPYLNRQDVHTPPAWVKEAIFYQIFPERFANGDPSNDPEGVQEWGGTPSAGNFFGGDLQGVIDHLDYLSDLGVNALYFNPLFAATTNHKYDTADYMKIDPQFGTNEKLKELVDACHARGMRVLLDAVFNHCGHTFPPFVDVLNNGLNSRYADWFHVREWPLRVVDGIPTYDTFAFEPIMPKLNTGNEEVKAYLLNVGRYWLEEMGLDGWRLDVANEVDHQFWREFRSEIKRINPSAYILGEIMHDSMPWLQGDQFDAVMNYPFTNILLNFFARRLTNAAEFAQAIGTQLAGYPQQVTEVSFNLLGSHDTTRLLTLCSGNVERMKLATLFQLTYQGTPCIYYGDEIGMDGEYDPLNRKCMEWDKSKQNTELLAFFRSMISLRKAHPALRGSGLRFLPVLEHPQLLVYERWDDNERFLIMLNNEDAPVNVVIPAAQPGASWRTVNGEPCAVVEESSIQAALPPYGYAILHAPIAGTAE
notes: is cultured in a medium to yield and accumulate said cyclodextrinase, and this enzyme is collected from the culture; made in house; host or cells: Bacillus sphaericus E-244 (FERM BP-2458), the natural wild-type producer strain; not recombinant
Regarding B1, the Km in data set [1] turned out to be 690 µM; in data set [2], 950 µM; in data set [3], 710 µM; in data set [4], 1430 µM; in data set [5], 1540 µM; in data set [6], 380 µM. For the same protein, the Km in data set [7] was found to be 1110 µM.

By Km is commonly meant the concentration of substrate that gives half-maximal velocity.
